Assay results as given in FireProtDB (doi:10.1093/protein/13.4.299).
“And” between values parts separate entries of the source, which are not always exact repeats. Identical values can stand only once.

Conditions: Homo sapiens, DSC, reversible: yes, whole UniProt chain shown; for Tm / heat capacity change of unfolding / unfolding enthalpy (calorimetric) / unfolding enthalpy (van 't Hoff): Thermal; for denaturant m value / denaturant midpoint (higher = more stable) / unfolding free energy: 25 °C, GdnHCl

B1: Lysozyme C wild type, P61626 (protein)
chain: MKALIVLGLVLLSVTVQGKVFERCELARTLKRLGMDGYRGISLANWMCLAKWESGYNTRATNYNAGDRSTDYGIFQINSRYWCNDGKTPGAVNACHLSCSALLQDNIADAVACAKRVVRDPQGIRAWVAWRNRCQNRDVRQYVQGCGV
pH 2.63, glycine-HCl 50 mM
  Tm: 55.6 °C
  heat capacity change of unfolding: 1.94 kcal/mol/K
  unfolding enthalpy (calorimetric): 90.6 kcal/mol
  unfolding enthalpy (van 't Hoff): 96.3 kcal/mol
pH 2.64, glycine-HCl 50 mM
  Tm: 56.4 °C
  heat capacity change of unfolding: 1.63 kcal/mol/K
  unfolding enthalpy (calorimetric): 95.1 kcal/mol
  unfolding enthalpy (van 't Hoff): 95.6 kcal/mol
pH 2.68, glycine-HCl 50 mM
  Tm: 56.8 °C
  heat capacity change of unfolding: 1.94 kcal/mol/K
  unfolding enthalpy (calorimetric): 92 kcal/mol
  unfolding enthalpy (van 't Hoff): 96.3 kcal/mol
pH 2.75, glycine-HCl 50 mM
  Tm: 58.2 °C
  heat capacity change of unfolding: 1.77 kcal/mol/K
  unfolding enthalpy (calorimetric): 97.5 kcal/mol
  unfolding enthalpy (van 't Hoff): 99 kcal/mol
pH 2.78, glycine-HCl 50 mM
  Tm: 59 °C
  heat capacity change of unfolding: 1.31 kcal/mol/K
  unfolding enthalpy (calorimetric): 98 kcal/mol
  unfolding enthalpy (van 't Hoff): 101 kcal/mol
pH 2.84, glycine-HCl 50 mM
  Tm: 60.3 °C
  heat capacity change of unfolding: 1.67 kcal/mol/K
  unfolding enthalpy (calorimetric): 98.5 kcal/mol
  unfolding enthalpy (van 't Hoff): 103 kcal/mol
pH 2.87, glycine-HCl 50 mM
  Tm: 60.5 °C
  heat capacity change of unfolding: 1.7 kcal/mol/K
  unfolding enthalpy (calorimetric): 99 kcal/mol
  unfolding enthalpy (van 't Hoff): 99 kcal/mol
pH 2.93, glycine-HCl 50 mM
  Tm: 62.5 °C
  heat capacity change of unfolding: 1.46 kcal/mol/K
  unfolding enthalpy (calorimetric): 102 kcal/mol
  unfolding enthalpy (van 't Hoff): 102 kcal/mol
pH 3, glycine-HCl 50 mM
  denaturant m value: 3.23 kcal/mol/M and 3.01 kcal/mol/M
  denaturant midpoint (higher = more stable): 2.9 M and 2.1 M
  unfolding free energy: 9.49 kcal/mol and 6.19 kcal/mol
pH 4, glycine-HCl 50 mM
  denaturant m value: 3.37 kcal/mol/M and 2.96 kcal/mol/M
  denaturant midpoint (higher = more stable): 3.8 M and 2.8 M
  unfolding free energy: 12.9 kcal/mol and 8.25 kcal/mol
pH 7, Sodium phosphate 50 mM
  denaturant m value: 3.01 kcal/mol/M
  denaturant midpoint (higher = more stable): 4 M
  unfolding free energy: 12.1 kcal/mol
